The chains are these.
B1: Homeobox protein SIX3, residues 212 to 262; numbered along this chain, O95343 (parent)
chain: CFKERTRSLLREWYLQDPYPNPSKKRELAQATGLTPTQVGNWFKNRRQRDR

± gives the uncertainty stated by the source.

Variants of B1 are the subject of the series. Put plainly: abundance fitness (aPCA) (normalised: wild type 0, dead -1); higher = more abundant; growth selection in yeast, the domain comes from the species named. The conditions noted are these: Homo sapiens.
On to CFKERTRSLLREWYLQDPYPNPSKKRELAQATGLTPTQVGNWFKHRRQRDR [N45H], for which the abundance fitness was -0.209 ± 0.14.

Consider CFKERTRSLLREWYLQDPYPNPSKKRELAQATGLTPTQVGNWFKTRRQRDR [N45T], for which the abundance fitness is -0.255 ± 0.074.

Regarding CFKERTRSLLREWYLQDPYPNPSKKRELAQATGLTPTQVGNWFKARRQRDR [N45A], the abundance fitness is -0.452 ± 0.1.

Consider CFKERTRSLLREWYLQDPYPNPSKKRELAQATGLTPTQVGNWFKCRRQRDR [N45C], for which the abundance fitness is -0.396 ± 0.069.

As to CFKERTRSLLREWYLQDPYPNPSKKRELAQATGLTPTQVGNWFKYRRQRDR [N45Y], the abundance fitness is -0.725 ± 0.24.

For the variant CFKERTRSLLREWYLQDPYPNPSKKRELAQATGLTPTQVGNWFKWRRQRDR [N45W], the abundance fitness is -0.655 ± 0.1.

On to CFKERTRSLLREWYLQDPYPNPSKKRELAQATGLTPTQVGNWFKPRRQRDR [N45P], for which the abundance fitness is -0.967 ± 0.23.

On to CFKERTRSLLREWYLQDPYPNPSKKRELAQATGLTPTQVGNWFKGRRQRDR [N45G], for which the abundance fitness is -0.58 ± 0.073.

Turning to CFKERTRSLLREWYLQDPYPNPSKKRELAQATGLTPTQVGNWFKIRRQRDR [N45I], the abundance fitness is -0.429 ± 0.047.

As for CFKERTRSLLREWYLQDPYPNPSKKRELAQATGLTPTQVGNWFKKRRQRDR [N45K], the abundance fitness is -0.368 ± 0.12.

For the variant CFKERTRSLLREWYLQDPYPNPSKKRELAQATGLTPTQVGNWFKSRRQRDR [N45S], the abundance fitness was -0.283 ± 0.045.

Consider CFKERTRSLLREWYLQDPYPNPSKKRELAQATGLTPTQVGNWFKVRRQRDR [N45V], for which the abundance fitness is -0.493 ± 0.1.

Take CFKERTRSLLREWYLQDPYPNPSKKRELAQATGLTPTQVGNWFKERRQRDR [N45E]: the abundance fitness is -0.192 ± 0.098.

For CFKERTRSLLREWYLQDPYPNPSKKRELAQATGLTPTQVGNWFKRRRQRDR [N45R], the abundance fitness was -0.063 ± 0.05.

CFKERTRSLLREWYLQDPYPNPSKKRELAQATGLTPTQVGNWFKMRRQRDR [N45M]: the abundance fitness is -0.355 ± 0.1.

CFKERTRSLLREWYLQDPYPNPSKKRELAQATGLTPTQVGNWFKLRRQRDR [N45L]: the abundance fitness is -0.28 ± 0.06.

For the variant CFKERTRSLLREWYLQDPYPNPSKKRELAQATGLTPTQVGNWFKQRRQRDR [N45Q], the abundance fitness was -0.263 ± 0.052.

On to CFKERTRSLLREWYLQDPYPNPSKKRELAQATGLTPTQVGNWFHNRRQRDR [K44H], for which the abundance fitness was -0.354 ± 0.071.

On to CFKERTRSLLREWYLQDPYPNPSKKRELAQATGLTPTQVGNWFFNRRQRDR [K44F], for which the abundance fitness was -0.452 ± 0.1.

On to CFKERTRSLLREWYLQDPYPNPSKKRELAQATGLTPTQVGNWFQNRRQRDR [K44Q], for which the abundance fitness stood at 0.007 ± 0.095.

On to CFKERTRSLLREWYLQDPYPNPSKKRELAQATGLTPTQVGNWFRNRRQRDR [K44R], for which the abundance fitness is -0.115 ± 0.044.

As for CFKERTRSLLREWYLQDPYPNPSKKRELAQATGLTPTQVGNWFNNRRQRDR [K44N], the abundance fitness was 0.017 ± 0.11.

For CFKERTRSLLREWYLQDPYPNPSKKRELAQATGLTPTQVGNWFSNRRQRDR [K44S], the abundance fitness was -0.192 ± 0.065.

CFKERTRSLLREWYLQDPYPNPSKKRELAQATGLTPTQVGNWFANRRQRDR [K44A]: the abundance fitness is -0.286 ± 0.044.

With CFKERTRSLLREWYLQDPYPNPSKKRELAQATGLTPTQVGNWFENRRQRDR [K44E], the abundance fitness was -0.086 ± 0.079.

Take CFKERTRSLLREWYLQDPYPNPSKKRELAQATGLTPTQVGNWFGNRRQRDR [K44G]: the abundance fitness was -0.72 ± 0.1.

As to CFKERTRSLLREWYLQDPYPNPSKKRELAQATGLTPTQVGNWFINRRQRDR [K44I], the abundance fitness was -0.629 ± 0.16.

Take CFKERTRSLLREWYLQDPYPNPSKKRELAQATGLTPTQVGNWFWNRRQRDR [K44W]: the abundance fitness is -0.623 ± 0.21.

CFKERTRSLLREWYLQDPYPNPSKKRELAQATGLTPTQVGNWFTNRRQRDR [K44T]: the abundance fitness is -0.376 ± 0.15.

On to CFKERTRSLLREWYLQDPYPNPSKKRELAQATGLTPTQVGNWFCNRRQRDR [K44C], for which the abundance fitness is -0.807 ± 0.24.

In the case of CFKERTRSLLREWYLQDPYPNPSKKRELAQATGLTPTQVGNWFMNRRQRDR [K44M], the abundance fitness is -0.505 ± 0.2.

Turning to CFKERTRSLLREWYLQDPYPNPSKKRELAQATGLTPTQVGNWFLNRRQRDR [K44L], the abundance fitness is -0.407 ± 0.074.

Turning to CFKERTRSLLREWYLQDPYPNPSKKRELAQATGLTPTQVGNWFDNRRQRDR [K44D], the abundance fitness is -0.356 ± 0.054.

Consider CFKERTRSLLREWYLQDPYPNPSKKRELAQATGLTPTQVGNWFYNRRQRDR [K44Y], for which the abundance fitness is -0.496 ± 0.17.

With CFKERTRSLLREWYLQDPYPNPSKKRELAQATGLTPTQVGNWFVNRRQRDR [K44V], the abundance fitness is -0.48 ± 0.048.

Turning to CFKERTRSLLREWYLQDPYPNPSKKRELAQATGLTPTQVGNWRKNRRQRDR [F43R], the abundance fitness is -0.774 ± 0.05.

With CFKERTRSLLREWYLQDPYPNPSKKRELAQATGLTPTQVGNWQKNRRQRDR [F43Q], the abundance fitness is -0.861 ± 0.089.

CFKERTRSLLREWYLQDPYPNPSKKRELAQATGLTPTQVGNWHKNRRQRDR [F43H]: the abundance fitness was -0.82 ± 0.28.

Take CFKERTRSLLREWYLQDPYPNPSKKRELAQATGLTPTQVGNWSKNRRQRDR [F43S]: the abundance fitness was -0.837 ± 0.073.

Take CFKERTRSLLREWYLQDPYPNPSKKRELAQATGLTPTQVGNWLKNRRQRDR [F43L]: the abundance fitness is -0.97 ± 0.15.

In the case of CFKERTRSLLREWYLQDPYPNPSKKRELAQATGLTPTQVGNWGKNRRQRDR [F43G], the abundance fitness was -0.956 ± 0.11.

CFKERTRSLLREWYLQDPYPNPSKKRELAQATGLTPTQVGNWYKNRRQRDR [F43Y]: the abundance fitness is -0.689 ± 0.086.

Consider CFKERTRSLLREWYLQDPYPNPSKKRELAQATGLTPTQVGNWDKNRRQRDR [F43D], for which the abundance fitness was -0.816 ± 0.35.

As to CFKERTRSLLREWYLQDPYPNPSKKRELAQATGLTPTQVGNWKKNRRQRDR [F43K], the abundance fitness was -0.92 ± 0.16.

For CFKERTRSLLREWYLQDPYPNPSKKRELAQATGLTPTQVGNWMKNRRQRDR [F43M], the abundance fitness was -0.782 ± 0.18.

For the variant CFKERTRSLLREWYLQDPYPNPSKKRELAQATGLTPTQVGNWWKNRRQRDR [F43W], the abundance fitness was -0.915 ± 0.055.

Take CFKERTRSLLREWYLQDPYPNPSKKRELAQATGLTPTQVGNWTKNRRQRDR [F43T]: the abundance fitness is -0.951 ± 0.14.

Regarding CFKERTRSLLREWYLQDPYPNPSKKRELAQATGLTPTQVGNWIKNRRQRDR [F43I], the abundance fitness was -0.679 ± 0.47.

On to CFKERTRSLLREWYLQDPYPNPSKKRELAQATGLTPTQVGNWNKNRRQRDR [F43N], for which the abundance fitness is -0.621 ± 0.24.

As to CFKERTRSLLREWYLQDPYPNPSKKRELAQATGLTPTQVGNWVKNRRQRDR [F43V], the abundance fitness is -1 ± 0.092.

For CFKERTRSLLREWYLQDPYPNPSKKRELAQATGLTPTQVGNWAKNRRQRDR [F43A], the abundance fitness was -0.96 ± 0.22.
